Target: Aβ(1-40) peptide
Assay: cell-based or functional assay

Sequence of Aβ(1-40) peptide (peptide, as listed by the source): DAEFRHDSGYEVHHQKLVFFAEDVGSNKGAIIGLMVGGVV

B1: ACA (control antibody; humanized 266 antibody, U.S. Pat. No. 7,195,761 B2) (antibody, INN chains, looked up, V domains shown)
VH: EVQLVESGGGLVQPGGSLRLSCAASGFTFSRYSMSWVRQAPGKGLELVAQINSVGNSTYYPDTVKGRFTISRDNAKNTLYLQMNSLRAEDTAVYYCASGDYWGQGTLVTVSS
VL: DVVMTQSPLSLPVTLGQPASISCRSSQSLIYSDGNAYLHWFLQKPGQSPRLLIYKVSNRFSGVPDRFSGSGSGTDFTLKISRVEAEDVGVYYCSQSTHVPWTFGQGTKVEIK
Binder B1 has an inhibition of Aβ fibril formation (THT fluorescence), antibody 1.3 µM of 20%.
